Patent publication US20240132603A1 (HARBOUR BIOMED US, published 2024)
Residue numbers refer to the chain shown, from its start. Where two headings read alike, the source gives them in different places.

B1: PR004524 (antibody, human IgG1, kappa, V domains shown)
VH: EVQLVESGGGLVQPGGSLKLSCAASGFTFNTYAMNWVRQASGKGLEWVGRIRSKSNNYATYYADSVKDRFTISRDDSKSTLYLQMNSLKTEDTAVYYCVRGKENGNYYAMDFWGQGTTVTVSS
VL: DIVMTQSPLSLPVTPGEPASISCRSSKSLLHSNGNTYLYWFLQKPGQSPQLLIYRMSNLASGVPDRFSGSGSGTDFTLKISRVEAEDVGVYYCMQHLEYPLTFGQGTKLEIKR
notes: humanized variant of PR004128, IgG1 with DE mutation
B2: PR004526 (antibody, human IgG1, kappa, V domains shown)
VH: B1 VH with K19R, S41P, G49S, K89R, T90A
VL: B1 VL with P15L, E17Q, N35K, T36I, L42Q, K44R, Q50R
notes: as for B1
B3: PR004663 (antibody, human IgG1, kappa, V domains shown)
VH: B1 VH with K19R, N30S, S41P, G49S, K89R, T90A, N104Q
VL: B1 VL with G34A, N35K, T36I
notes: PTM site-removed humanized variant of PR004128, IgG1 with DE mutation
B4: PR004665 (antibody, human IgG1, kappa, V domains shown)
VH: B1 VH with Q13K, K19R, N30S, S41P, N104Q
VL: B1 VL with P15L, E17Q, N35K, T36I, L42Q, K44R, Q50R
notes: as for B3
B5: PR004662 (antibody, human IgG1, kappa, V domains shown)
VH: B1 VH with K19R, N30S, S41P, G49S, K89R, T90A, G105A
VL: B1 VL with G34A, N35K, T36I
notes: as for B3
B6: PR004527 (antibody, human IgG1, kappa, V domains shown)
VH: B1 VH
VL: B1 VL with P15L, E17Q, N35K, T36I, L42Q, K44R, Q50R
notes: as for B1
B7: PR004664 (antibody, human IgG1, kappa, V domains shown)
VH: B1 VH with Q13K, K19R, N30S, S41P, G105A
VL: B1 VL with P15L, E17Q, N35K, T36I, L42Q, K44R, Q50R
notes: as for B3
B8: PR004667 (antibody, human IgG1, kappa, V domains shown)
VH: B1 VH with Q13K, K19R, N30S, S41P, N104Q
VL: B1 VL with P15L, E17Q, G34A, N35K, T36I, L42Q, K44R, Q50R
notes: as for B3
B9: PR004666 (antibody, human IgG1, kappa)
heavy: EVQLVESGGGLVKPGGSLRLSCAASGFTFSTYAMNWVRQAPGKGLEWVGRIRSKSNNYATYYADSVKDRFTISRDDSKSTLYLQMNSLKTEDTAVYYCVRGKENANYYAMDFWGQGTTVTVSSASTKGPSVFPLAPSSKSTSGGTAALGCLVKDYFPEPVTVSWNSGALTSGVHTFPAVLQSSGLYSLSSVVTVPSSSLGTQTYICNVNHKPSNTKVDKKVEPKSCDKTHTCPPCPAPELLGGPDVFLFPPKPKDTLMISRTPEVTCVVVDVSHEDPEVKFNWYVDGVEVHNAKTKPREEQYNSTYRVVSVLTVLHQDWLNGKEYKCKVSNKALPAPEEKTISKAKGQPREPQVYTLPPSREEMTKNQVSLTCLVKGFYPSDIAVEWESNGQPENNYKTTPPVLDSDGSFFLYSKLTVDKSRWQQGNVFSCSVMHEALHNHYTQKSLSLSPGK
light: DIVMTQSPLSLPVTLGQPASISCRSSKSLLHSNAKIYLYWFQQRPGQSPRLLIYRMSNLASGVPDRFSGSGSGTDFTLKISRVEAEDVGVYYCMQHLEYPLTFGQGTKLEIKRTVAAPSVFIFPPSDEQLKSGTASVVCLLNNFYPREAKVQWKVDNALQSGNSQESVTEQDSKDSTYSLSSTLTLSKADYEKHKVYACEVTHQGLSSPVTKSFNRGEC
notes: as for B3
B10: PR004660 (antibody, human IgG1, kappa, V domains shown)
VH: B1 VH with K19R, N30S, S41P, G49S, K89R, T90A, G105A
VL: B1 VL with N35K, T36I
notes: as for B3
B11: PR004525 (antibody, human IgG1, kappa)
heavy: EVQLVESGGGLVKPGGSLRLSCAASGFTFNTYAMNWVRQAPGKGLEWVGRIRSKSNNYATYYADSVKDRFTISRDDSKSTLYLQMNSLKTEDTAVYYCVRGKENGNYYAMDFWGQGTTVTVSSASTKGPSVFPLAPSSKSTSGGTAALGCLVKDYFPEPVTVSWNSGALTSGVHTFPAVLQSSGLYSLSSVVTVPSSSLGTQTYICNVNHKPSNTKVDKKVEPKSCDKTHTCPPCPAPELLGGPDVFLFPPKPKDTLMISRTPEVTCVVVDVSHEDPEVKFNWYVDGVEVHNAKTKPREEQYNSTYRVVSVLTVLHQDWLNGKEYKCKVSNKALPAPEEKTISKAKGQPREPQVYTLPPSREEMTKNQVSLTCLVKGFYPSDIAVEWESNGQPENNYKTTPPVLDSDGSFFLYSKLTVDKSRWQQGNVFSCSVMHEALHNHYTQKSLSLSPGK
light: B9 light with A34G
notes: as for B1
B12: PR004661 (antibody, human IgG1, kappa, V domains shown)
VH: B1 VH with K19R, N30S, S41P, G49S, K89R, T90A, N104Q
VL: B1 VL with N35K, T36I
notes: as for B3

What was measured:
human CCR8 [1] = molecular target: T1, human CCR8 (human, UniProt P51685 1-355); assay: FACS, CHO-K1-hCCR8 cells
T1 construct: whole, on cells; construct used for the overexpressing cell lines is not described; also called hCCR8
Experimental: (§1) Cells overexpressing human CCR8 were digested with pancreatin, counted and resuspended to a cell density of 1E6 cells/mL. The cell suspension was added to a 96-well V-bottom plate at 100 μL/well and centrifuged at 300 g for 5 min, and the supernatant was discarded. The anti-CCR8 antibodies provided herein was used as a primary antibody and diluted in a 5-fold gradient with an FACS buffer (DPBS containing 2% FBS) from 200 nM. The diluted primary antibody was added at 100 μL/well to resuspend the cells, and the mixture was incubated at 4° C. for 1 h. The plate was washed twice with DPBS and centrifuged at 300×g for 5 min, and the supernatant was discarded. The secondary antibody diluted in a 1:1000 ratio with an FACS buffer was added at 100 μL/well to suspend the cells, and the mixture was incubated at 4° C. for 40 min. The plate was washed twice with DPBS and centrifuged at 300×g for 5 min, and the supernatant was discarded. DPBS was added at 200 μL/well to suspend the cells, and the mixture was loaded on an FACS machine for analysis.

cynomolgus monkey CCR8 [2] = molecular target: T2, cynomolgus monkey CCR8 (cynomolgus monkey, UniProt G7NYJ2 1-355); assay: FACS, CHO-K1-CynoCCR8 cells
T2 construct: whole, on cells; also called CynoCCR8
Experimental: as §1, with “cynomolgus monkey CCR8, CHO-K1-CynoCCR8,” for “human CCR8”

human CCR8 [3] = molecular target: T1, human CCR8; assay: FACS, CHO-K1-hCCR8 cells; remark: listed apart in the source
Experimental: as §1

human CCR8 [4] = molecular target: T1, human CCR8; assay: FACS, CHO-K1-hCCR8 cells; remark: listed apart in the source
Experimental: as §1

cynomolgus monkey CCR8 [5] = molecular target: T2, cynomolgus monkey CCR8; assay: FACS, CHO-K1-CynoCCR8 cells; remark: listed apart in the source
Experimental: as §1, with “cynomolgus monkey CCR8, CHO-K1-CynoCCR8,” for “human CCR8”

T2 sequence (G7NYJ2 entry or part of it): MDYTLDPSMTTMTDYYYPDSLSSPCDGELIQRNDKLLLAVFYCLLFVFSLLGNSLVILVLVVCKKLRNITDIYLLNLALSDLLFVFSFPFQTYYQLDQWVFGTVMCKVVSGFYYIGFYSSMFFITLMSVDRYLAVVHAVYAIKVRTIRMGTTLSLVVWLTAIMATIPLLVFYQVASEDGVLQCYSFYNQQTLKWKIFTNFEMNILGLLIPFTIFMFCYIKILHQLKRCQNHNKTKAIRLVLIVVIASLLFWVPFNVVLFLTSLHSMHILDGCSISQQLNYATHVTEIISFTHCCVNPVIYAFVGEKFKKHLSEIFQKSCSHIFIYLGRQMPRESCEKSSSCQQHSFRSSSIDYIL
T1 sequence (P51685 whole entry): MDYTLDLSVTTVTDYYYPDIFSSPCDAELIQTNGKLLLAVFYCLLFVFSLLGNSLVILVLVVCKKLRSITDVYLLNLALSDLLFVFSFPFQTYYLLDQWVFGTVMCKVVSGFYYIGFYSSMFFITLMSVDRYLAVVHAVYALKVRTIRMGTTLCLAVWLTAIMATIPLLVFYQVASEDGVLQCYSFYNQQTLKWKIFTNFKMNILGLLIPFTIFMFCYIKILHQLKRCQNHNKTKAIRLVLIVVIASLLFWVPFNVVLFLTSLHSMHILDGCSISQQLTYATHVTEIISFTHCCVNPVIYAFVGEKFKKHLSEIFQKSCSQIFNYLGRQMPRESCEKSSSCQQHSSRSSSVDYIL

Row | Binder | EC50 (human CCR8 [1]) [nM] | EC50 (cynomolgus monkey CCR8 [2]) [nM] | EC50 (human CCR8 [3]) [nM] | other results
1 | B1 | 0.17 | 4.79 | – | –
2 | B2 | 1.03 | 4.01 | – | –
3 | B3 | – | – | 0.286 | –
4 | B4 | – | – | 0.341 | –
5 | B5 | – | – | 0.681 | –
6 | B6 | 0.73 | 7.33 | – | –
7 | B7 | – | – | 0.365 | –
8 | B8 | – | – | 0.279 | –
9 | B9 | – | – | 0.466 | EC50 (human CCR8 [4]): 0.44 nM; EC50 (cynomolgus monkey CCR8 [5]): 0.37 nM
10 | B10 | – | – | 0.49 | –
11 | B11 | 0.85 | 6.21 | – | –
12 | B12 | – | – | 0.456 | –
